Test system: D54-MG xenografted human glioma tumors
Test: Brain tumor targeting after intravenous injection (D54-MG/SCID mouse model)
Assay type: in vivo
Settings: tail vein injection, measured after 24 hours
Source text: These experiments consisted of five research studies utilizing the […] mouse model.

For “125I-EGF: 125I-labeled EGF used as a control; EGF receptor is up-regulated in these tumors”, the “Targeting of brain tumor” value was “did not localize to the brain tumors to any appreciable extent”.
